According to patent US20060211075A1, “Enzyme sensors including environmentally sensitive or fluorescent labels and uses thereof” (The Albert Einstein College of Medicine of Yeshiva …, priority 2005, published 2006):
Non-standard residues stand in square brackets, D forms with d. Residues, ends and D or L forms follow the SMILES beside them. No end group written: not given here. *: point of attachment. Cascade Yellow = fluorophore from Cascade Yellow succinimidyl ester, attached to the Dab or Dap side chain; pY = N[C@@H](Cc1ccc(OP(=O)(O)O)cc1)C(=O)O; NBD = O=[N+]([O-])c1ccc(*)c2nonc12; Dab = NCC[C@H](N)C(=O)O; Dap = NC[C@H](N)C(=O)O

Legend:
Src [1] = biological target: T1, Src (Homo sapiens, UniProt P12931); experiment: Src kinase-catalyzed phosphorylation of self-reporting fluorophore-peptides, fluorescence change (no detection module); details: for Phosphorylation-induced fluorescence change: Src, no detection module; for Fluorescence change (fold): upon phosphorylation
Procedure: Tyrosine kinase-catalyzed phosphorylation was initiated by addition of 15 μL of 10 mM ATP to the following solution: 3 μL 0.1 mM peptide stock solution, 3.8 μL 200 mM MgCl2, 1.5 μL 100 mM MnCl2, 23.2 μL H2O, 6 μL 50 mM DTT, 15 μL 0.1 mg/mL BSA, and 7.5 μL 0.03 μM Src in 75 μL Tris buffer solution (pH 7.2).

GST-Lck-SH2 = biological target: T2, GST-Lck-SH2 (Homo sapiens, UniProt P06239); experiment: Fluorescence change as a function of Lck-SH2 concentration (Src-catalyzed phosphorylation); format: biochemical
T2 construct: made in house; host or cells: E. coli
T2 sequence (P06239 127-224 limits assumed): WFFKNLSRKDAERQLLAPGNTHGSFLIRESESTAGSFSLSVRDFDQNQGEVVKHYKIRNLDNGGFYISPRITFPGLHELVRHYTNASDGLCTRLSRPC
From the text: As is evident from Table 1, the dapoxyl fluorophore positioned off the +3 and +4 sites on the peptide substrate (Dap-5 and Dab-5) produce the largest changes in fluorescent behavior. Two peptides (13 and 14, FIG. 4) were examined in greater detail. Both peptides were resynthesized on the Rink resin and purified by HPLC. In addition, the phosphotyrosine version of 13 was enzymatically prepared. […] If the SH2 domain is responsible for the fluorescence change induced by Src kinase-catalyzed phosphorylation, then the Lck SH2 domain concentration should influence the observed fluorescence response. […] The reactions were initiated by the addition of ATP. When only buffer was added to “initiate” the reaction (i.e. no ATP), the fluorescence of the mixture remained unperturbed. Furthermore, in the absence of Lck SH2 domain, ATP addition to initiate the reaction furnished an exceedingly modest change in fluorescence intensity (<5%). By contrast, increasing concentrations of SH2 domain produced increasing enhancements in fluorescence intensity. Above an Lck SH2 concentration of 16 μM, the change in fluorescence intensity began to level off, which is in keeping with the notion that the interaction between phosphopeptide and Lck SH2 domain was approaching saturation. […] This appears to be a consequence of the —NH(CH2)2SH tail that is present on the library members (but not on the amide-capped peptides, as a consequence of the respective synthesis methods used).
(§1) The fluorescence change was monitored as a function of time. Control assays in the absence of Lck-SH2 were also performed.
The assay protocol described above was used to assess the effect of GST-Lck-SH2 concentration on the observed fluorescence associated with the phosphorylation of pure peptide 13 (30 nM Src) and peptide 14 (15 nM Src).

Src [2] = biological target: T1, Src; experiment: Assay of library: Src kinase-catalyzed phosphorylation of fluorophore-labeled peptides in presence of Lck-SH2, fluorescence change; format: biochemical; parameters: purchased Invitrogen; details: fluorophore attachment site +4; —NH2 derivative (in parentheses, amide-capped); Lck-SH2 present
Procedure: The library was prepared via parallel synthesis using a previously described disulfide-linked Tentagel resin (see “Synthesis of Peptide Library” below). Following solid phase synthesis of the primary sequence, the side chain amine of the Dap or Dab residue was selectively deprotected and subsequently modified with the appropriate activated forms of 5, 6, and 7. The remaining protecting groups on the peptide were then removed with trifluoroacetic acid (TFA), the peptide-resin extensively washed to eliminate the last traces of TFA, and the peptide cleaved from the resin with assay buffer (which contained dithiothreitol) and purified by HPLC. The fluorescent response of the individual library members to Src catalysis in the presence of Lck SH2 was subsequently examined in detail (see “Assay of Library” below).
as §1

Src [3] = biological target: T1, Src; experiment: Vmax and Km of Src kinase-catalyzed phosphorylation at fixed Lck-SH2 (20 μM); format: biochemical; parameters: purchased Invitrogen; details: varying peptide
Procedure: as §1
The final Src concentration was 30 nM for peptide 13 and 15 nM for peptide 14.

Lck SH2 domain = biological target: T3, Lck SH2 domain (Homo sapiens, UniProt P06239); experiment: Effect of competing Lck-SH2 domain ligand on the fluorescence change; format: binding; details: ligand 50 μM, peptide substrate 4 μM, GST-Lck-SH2 22 μM
T3 construct: made in house; host or cells: E. coli
T3 sequence (P06239 127-224 limits assumed): as above
From the text: As is evident from Table 1, the dapoxyl fluorophore positioned off the +3 and +4 sites on the peptide substrate (Dap-5 and Dab-5) produce the largest changes in fluorescent behavior. Two peptides (13 and 14, FIG. 4) were examined in greater detail. Both peptides were resynthesized on the Rink resin and purified by HPLC. In addition, the phosphotyrosine version of 13 was enzymatically prepared. […] If the SH2 domain is responsible for the fluorescence change induced by Src kinase-catalyzed phosphorylation, then the Lck SH2 domain concentration should influence the observed fluorescence response. […] The reactions were initiated by the addition of ATP. When only buffer was added to “initiate” the reaction (i.e. no ATP), the fluorescence of the mixture remained unperturbed. Furthermore, in the absence of Lck SH2 domain, ATP addition to initiate the reaction furnished an exceedingly modest change in fluorescence intensity (<5%). By contrast, increasing concentrations of SH2 domain produced increasing enhancements in fluorescence intensity. Above an Lck SH2 concentration of 16 μM, the change in fluorescence intensity began to level off, which is in keeping with the notion that the interaction between phosphopeptide and Lck SH2 domain was approaching saturation. […]

PTP1B = biological target: T4, PTP1B (Homo sapiens, UniProt P18031); experiment: Effect of PTP1B on the fluorescence change; format: biochemical; details: peptide substrate 4 μM; GST-Lck-SH2 22 μM
T4 construct: purchased Invitrogen
T4 sequence (P18031 1-435): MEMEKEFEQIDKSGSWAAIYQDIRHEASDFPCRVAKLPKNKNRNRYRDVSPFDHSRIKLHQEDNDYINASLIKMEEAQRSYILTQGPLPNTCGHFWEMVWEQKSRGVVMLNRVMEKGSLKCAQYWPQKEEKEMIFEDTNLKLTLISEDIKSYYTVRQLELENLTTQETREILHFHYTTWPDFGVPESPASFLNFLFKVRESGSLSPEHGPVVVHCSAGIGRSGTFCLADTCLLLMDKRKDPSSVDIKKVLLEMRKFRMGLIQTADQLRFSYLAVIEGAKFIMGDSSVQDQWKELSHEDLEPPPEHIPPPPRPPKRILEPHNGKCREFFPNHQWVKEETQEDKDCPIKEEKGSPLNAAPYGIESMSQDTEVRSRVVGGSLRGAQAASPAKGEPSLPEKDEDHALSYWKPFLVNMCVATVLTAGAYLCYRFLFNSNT

[4] = fluorophore on Dab at position Y−2, λex/λem (nm) (first pair listed for the fluorophore)
[5] = fluorophore on Dap at position Y+3, λex/λem (nm) (first pair listed for the fluorophore)

Compound: Sensor 26: Cascade Yellow-containing sensor, fluorophore on Dab at Y−2, SEQ ID NO:15 (EE[Dab](Cascade Yellow)IYGEIEA)
- Phosphorylation-induced fluorescence change (Src [1]): 2.7 fold

Compound: 27: corresponding peptide containing Cascade Yellow positioned at Y+3, SEQ ID NO:16 (EEEIYGE[Dap](Cascade Yellow)EA) [Peptide 27]
- Phosphorylation-induced fluorescence change (Src [1]): smaller fluorescence response

Compound: Cascade Blue ™
- Fluorescence change (fold) (Src [1]; [4]): 2.1 fold
- Fluorescence change (fold) (Src [1]; fluorophore on Dap at position Y+3, λex 379 nm, λem 422 nm): 1.7 fold
- Fluorescence change (fold) (Src [1]; [5]): 1.7 fold

Compound: Ac-Glu-Glu-Glu-Ile-Tyr-Gly-Glu-Ile-Dab(dapoxyl)-Ala (Ac-EEEIYGEI[Dab](dapoxyl)A-NH2; not fully specified; printed as Ac-Glu-Glu-Glu-Ile-Tyr-Gly-Glu-Ile-Dab(dapoxyl)-Ala) [Peptide 14]
- Fluorescence Increase (GST-Lck-SH2; peptide 8 μM, Lck-SH2 0.2 μM, 15 nM Src): 1.07 fold change
- Fluorescence Increase (GST-Lck-SH2; peptide 8 μM, Lck-SH2 2 μM, 15 nM Src): 1.70 fold change
- Fluorescence Increase (GST-Lck-SH2; peptide 8 μM, Lck-SH2 4 μM, 15 nM Src): 2.32 fold change
- Fluorescence Increase (GST-Lck-SH2; peptide 8 μM, Lck-SH2 8 μM, 15 nM Src): 4.31 fold change
- Fluorescence Increase (GST-Lck-SH2; peptide 8 μM, Lck-SH2 12 μM, 15 nM Src): 5.34 fold change
- Fluorescence Increase (GST-Lck-SH2; peptide 8 μM, Lck-SH2 16 μM, 15 nM Src): 6.20 fold change
- Fluorescence Increase (GST-Lck-SH2; peptide 8 μM, Lck-SH2 20 μM, 15 nM Src): 6.85 fold change
- Fluorescence Increase (GST-Lck-SH2; peptide 8 μM, Lck-SH2 26 μM, 15 nM Src): 7.32 fold change
- Fluorescence Increase (GST-Lck-SH2; peptide 8 μM, Lck-SH2 32 μM, 15 nM Src): 7.20 fold change
- Fold change in fluorescence intensity in the Src kinase-catalyzed phosphorylation (Src [2]): 7.2 fold
- Km (Src [3]): 4.8 ± 0.8 µM
- Vmax (Src [3]): 1.5 ± 0.1 µmol/min/mg

Compound: Ac-pTyr-Glu-Glu-Ile-Glu-amide (Ac-[pY]EEIE-NH2; SMILES CC[C@H](C)[C@H](NC(=O)[C@H](CCC(=O)O)NC(=O)[C@H](CCC(=O)O)NC(=O)[C@H](Cc1ccc(OP(=O)(O)O)cc1)NC(C)=O)C(=O)N[C@@H](CCC(=O)O)C(N)=O)
- fluorescence change of the Src reaction in presence of known Lck SH2 domain ligand (Lck SH2 domain): no fluorescence change was observed
- fluorescence change of the Src reaction in presence of known Lck SH2 domain ligand (Lck SH2 domain; listed as Ac-pTyr-Glu-Glu-Ile-Glu-OH): no fluorescence change

Compound: BODIPY FL
- Fluorescence change (fold) (Src [1]; [5]): 1.06 fold

Compound: Dansyl
- Fluorescence change (fold) (Src [1]; [4]): 1.0 fold
- Fluorescence change (fold) (Src [1]; [5]): 1.0 fold

Compound: NBD (Ac-EEEIY[Dap](NBD)EIEA-NH2; SMILES CC[C@H](C)[C@H](NC(=O)[C@H](CCC(=O)O)NC(=O)[C@H](CNc1ccc([N+](=O)[O-])c2nonc12)NC(=O)[C@H](Cc1ccc(O)cc1)NC(=O)[C@@H](NC(=O)[C@H](CCC(=O)O)NC(=O)[C@H](CCC(=O)O)NC(=O)[C@H](CCC(=O)O)NC(C)=O)[C@@H](C)CC)C(=O)N[C@@H](CCC(=O)O)C(=O)N[C@@H](C)C(N)=O)
- Fluorescence change (fold) (Src [1]; [4]): 1.7 fold
- Fluorescence change (fold) (Src [1]; [5]): 1.25 fold

Compound: Cascade Yellow (EE[Dab](Cascade Yellow)IYGEIEA)
- Fluorescence change (fold) (Src [1]; [4]): 2.7 fold
- Fluorescence change (fold) (Src [1]; [5]): 1.45 fold

Compound: CC[C@H](C)[C@H](NC(=O)[C@H](CCC(=O)O)NC(=O)[C@H](CNc1ccc([N+](=O)[O-])c2nonc12)NC(=O)[C@H](Cc1ccc(O)cc1)NC(=O)[C@@H](NC(=O)[C@H](CCC(=O)O)NC(=O)[C@H](CCC(=O)O)NC(=O)[C@H](CCC(=O)O)NC(C)=O)[C@@H](C)CC)C(=O)N[C@@H](CCC(=O)O)C(=O)N[C@@H](C)C(N)=O [Peptide 13, Ac-Glu-Glu-Glu-Ile-Tyr-Dap(NBD)-Glu-Ile-Glu-Ala] (Ac-EEEIY[Dap](NBD)EIEA-NH2)
- change in fluorescence intensity on ATP addition (GST-Lck-SH2; absence of Lck SH2 domain, peptide 16 μM): < 5%
- Fluorescence Increase (GST-Lck-SH2; peptide 16 μM, Lck-SH2 0 μM, 30 nM Src): 1.07 fold change
- Fluorescence Increase (GST-Lck-SH2; peptide 16 μM, Lck-SH2 4 μM, 30 nM Src): 1.24 fold change
- Fluorescence Increase (GST-Lck-SH2; peptide 16 μM, Lck-SH2 8 μM, 30 nM Src): 1.33 fold change
- Fluorescence Increase (GST-Lck-SH2; peptide 16 μM, Lck-SH2 12 μM, 30 nM Src): 1.41 fold change
- Fluorescence Increase (GST-Lck-SH2; peptide 16 μM, Lck-SH2 16 μM, 30 nM Src): 1.52 fold change
- Fluorescence Increase (GST-Lck-SH2; peptide 16 μM, Lck-SH2 20 μM, 30 nM Src): 1.56 fold change
- Fluorescence Increase (GST-Lck-SH2; peptide 16 μM, Lck-SH2 26 μM, 30 nM Src): 1.61 fold change
- Fluorescence Increase (GST-Lck-SH2; peptide 16 μM, Lck-SH2 32 μM, 30 nM Src): 1.59 fold change
- fluorescence change when PTP1B is added at the same time as ATP (PTP1B): blocked the fluorescence change
- fluorescence intensity when PTP1B is added after completion of the Src kinase-catalyzed reaction (PTP1B): reduced the fluorescence intensity to the starting value
